Assay results as given in IntAct's records for PubMed 17012600.

B1: Protein NDR1 (Arabidopsis thaliana (Mouse-ear cress)), O48915 (parent)
chain: MNNQNEDTEGGRNCCTCCLSFIFTAGLTSLFLWLSLRADKPKCSIQNFFIPALGKDPNSRDNTTLNFMVRCDNPNKDKGIYYDDVHLNFSTINTTKINSSALVLVGNYTVPKFYQGHKKKAKKWGQVKPLNNQTVLRAVLPNGSAVFRLDLKTQVRFKIVFWKTKRYGVEVGADVEVNGDGVKAQKKGIKMKKSDSSFPLRSSFPISVLMNLLVFFAIR
partner: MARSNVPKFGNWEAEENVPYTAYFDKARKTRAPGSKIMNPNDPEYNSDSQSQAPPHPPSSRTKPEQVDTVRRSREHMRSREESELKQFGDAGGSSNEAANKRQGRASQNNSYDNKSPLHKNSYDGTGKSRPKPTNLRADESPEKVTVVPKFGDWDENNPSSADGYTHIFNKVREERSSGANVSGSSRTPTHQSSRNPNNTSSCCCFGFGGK

Variants of: B1
Conditions: with rin4_arath RIN4, Q8GYN5

Variant	effect of a mutation on the interaction
MNNQAEDTEGGRNCCTCCLSFIFTAGLTSLFLWLSLRADKPKCSIQNFFIPALGKDPNSRDNTTLNFMVRCDNPNKDKGIYYDDVHLNFSTINTTKINSSALVLVGNYTVPKFYQGHKKKAKKWGQVKPLNNQTVLRAVLPNGSAVFRLDLKTQVRFKIVFWKTKRYGVEVGADVEVNGDGVKAQKKGIKMKKSDSSFPLRSSFPISVLMNLLVFFAIR [N5A]	disrupting interaction
MNNANEDTEGGRNCCTCCLSFIFTAGLTSLFLWLSLRADKPKCSIQNFFIPALGKDPNSRDNTTLNFMVRCDNPNKDKGIYYDDVHLNFSTINTTKINSSALVLVGNYTVPKFYQGHKKKAKKWGQVKPLNNQTVLRAVLPNGSAVFRLDLKTQVRFKIVFWKTKRYGVEVGADVEVNGDGVKAQKKGIKMKKSDSSFPLRSSFPISVLMNLLVFFAIR [Q4A]	disrupting interaction
